Measured values: US20250155449A1

Tests used:
[1] = biological target: biotinylated IgG from human serum (Rockland Immunochemicals) (human); test: BLI, kinetic fit values (1:1 model), soluble sample on immobilized hIgG
[2] = biological target: biotinylated IgG from human serum (Rockland Immunochemicals) (human); test: BLI (Octet), equilibrium titration of soluble analyte on biotinylated hIgG on streptavidin tips
[3] = biological target: biotinylated IgG from human serum (Rockland Immunochemicals) (human); test: BLI, equilibrium KD, soluble sample on immobilized hIgG

Chain of Ab+Inv HC17 (HP6017 with invertase fused to the C-terminus of the heavy chain by an AS(G4S)3 linker) (heavy): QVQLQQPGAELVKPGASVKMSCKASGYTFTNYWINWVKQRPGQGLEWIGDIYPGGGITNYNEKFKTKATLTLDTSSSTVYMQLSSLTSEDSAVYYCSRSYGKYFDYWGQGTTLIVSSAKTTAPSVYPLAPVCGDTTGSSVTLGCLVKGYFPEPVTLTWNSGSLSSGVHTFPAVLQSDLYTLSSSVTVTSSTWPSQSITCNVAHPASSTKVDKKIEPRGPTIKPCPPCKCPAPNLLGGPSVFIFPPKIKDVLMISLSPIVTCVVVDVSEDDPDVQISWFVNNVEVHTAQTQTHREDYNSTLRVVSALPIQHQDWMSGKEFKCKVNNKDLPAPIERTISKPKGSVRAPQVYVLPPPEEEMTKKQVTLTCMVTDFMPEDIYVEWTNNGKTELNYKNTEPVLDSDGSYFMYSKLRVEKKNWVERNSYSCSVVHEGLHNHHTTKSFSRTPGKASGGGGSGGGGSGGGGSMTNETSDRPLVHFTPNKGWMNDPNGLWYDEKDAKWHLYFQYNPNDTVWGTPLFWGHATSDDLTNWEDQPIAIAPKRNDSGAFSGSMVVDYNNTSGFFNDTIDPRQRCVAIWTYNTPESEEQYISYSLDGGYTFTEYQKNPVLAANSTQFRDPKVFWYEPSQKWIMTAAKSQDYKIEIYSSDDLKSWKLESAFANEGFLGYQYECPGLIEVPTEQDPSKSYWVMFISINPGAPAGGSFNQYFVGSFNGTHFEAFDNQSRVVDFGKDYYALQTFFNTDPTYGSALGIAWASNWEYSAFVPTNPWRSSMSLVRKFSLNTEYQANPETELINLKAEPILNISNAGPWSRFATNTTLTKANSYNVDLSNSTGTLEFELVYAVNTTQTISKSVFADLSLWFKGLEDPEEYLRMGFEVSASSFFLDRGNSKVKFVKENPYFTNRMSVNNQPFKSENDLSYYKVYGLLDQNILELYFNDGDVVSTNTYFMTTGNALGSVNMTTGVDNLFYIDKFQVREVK
Chain of Ab+Inv HC17 (HP6017 with invertase fused to the C-terminus of the heavy chain by an AS(G4S)3 linker) (light): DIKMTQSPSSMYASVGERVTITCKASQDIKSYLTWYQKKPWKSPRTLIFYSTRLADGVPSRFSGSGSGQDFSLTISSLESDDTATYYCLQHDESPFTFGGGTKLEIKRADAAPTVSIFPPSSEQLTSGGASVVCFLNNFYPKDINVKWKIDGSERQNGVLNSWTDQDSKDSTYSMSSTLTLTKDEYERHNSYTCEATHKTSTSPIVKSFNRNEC
Chain of Ab+Inv LC15 (HP6017 with invertase fused to the C-terminus of the light chain by a (G4S)3 linker) (heavy): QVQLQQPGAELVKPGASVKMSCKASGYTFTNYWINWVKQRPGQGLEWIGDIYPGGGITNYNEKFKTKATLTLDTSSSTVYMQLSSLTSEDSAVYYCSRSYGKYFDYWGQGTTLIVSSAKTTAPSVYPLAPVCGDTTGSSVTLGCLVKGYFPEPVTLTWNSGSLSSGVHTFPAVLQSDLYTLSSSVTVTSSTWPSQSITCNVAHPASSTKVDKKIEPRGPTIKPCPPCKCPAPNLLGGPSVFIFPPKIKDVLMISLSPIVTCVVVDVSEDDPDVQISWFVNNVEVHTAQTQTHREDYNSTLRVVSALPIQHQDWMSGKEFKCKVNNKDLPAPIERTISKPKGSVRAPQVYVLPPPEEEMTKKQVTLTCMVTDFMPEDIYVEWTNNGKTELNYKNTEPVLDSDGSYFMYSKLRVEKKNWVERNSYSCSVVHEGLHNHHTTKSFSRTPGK
Chain of Ab+Inv LC15 (HP6017 with invertase fused to the C-terminus of the light chain by a (G4S)3 linker) (light): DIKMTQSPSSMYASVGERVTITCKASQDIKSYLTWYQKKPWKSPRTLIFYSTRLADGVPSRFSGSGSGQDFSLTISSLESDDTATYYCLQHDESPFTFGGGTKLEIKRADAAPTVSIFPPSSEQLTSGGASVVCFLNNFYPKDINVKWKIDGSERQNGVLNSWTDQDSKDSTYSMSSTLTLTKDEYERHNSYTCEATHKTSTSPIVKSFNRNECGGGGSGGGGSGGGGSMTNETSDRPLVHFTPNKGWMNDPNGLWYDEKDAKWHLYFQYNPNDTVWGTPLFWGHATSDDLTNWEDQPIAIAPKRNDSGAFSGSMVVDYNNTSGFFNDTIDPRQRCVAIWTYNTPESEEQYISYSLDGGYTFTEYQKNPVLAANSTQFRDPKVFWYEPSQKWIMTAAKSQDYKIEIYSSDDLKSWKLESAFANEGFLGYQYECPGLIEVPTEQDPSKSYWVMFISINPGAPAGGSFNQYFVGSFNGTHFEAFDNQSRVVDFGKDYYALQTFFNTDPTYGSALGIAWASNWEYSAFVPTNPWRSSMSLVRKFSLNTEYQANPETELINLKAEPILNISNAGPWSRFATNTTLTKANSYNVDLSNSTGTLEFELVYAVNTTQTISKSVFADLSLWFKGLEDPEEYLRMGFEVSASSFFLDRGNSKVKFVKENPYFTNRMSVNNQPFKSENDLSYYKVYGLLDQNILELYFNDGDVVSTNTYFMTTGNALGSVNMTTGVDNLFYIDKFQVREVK
Chain of Ab+Inv LC25 (HP6017 with invertase fused to the C-terminus of the light chain by a (G4S)5 linker) (light): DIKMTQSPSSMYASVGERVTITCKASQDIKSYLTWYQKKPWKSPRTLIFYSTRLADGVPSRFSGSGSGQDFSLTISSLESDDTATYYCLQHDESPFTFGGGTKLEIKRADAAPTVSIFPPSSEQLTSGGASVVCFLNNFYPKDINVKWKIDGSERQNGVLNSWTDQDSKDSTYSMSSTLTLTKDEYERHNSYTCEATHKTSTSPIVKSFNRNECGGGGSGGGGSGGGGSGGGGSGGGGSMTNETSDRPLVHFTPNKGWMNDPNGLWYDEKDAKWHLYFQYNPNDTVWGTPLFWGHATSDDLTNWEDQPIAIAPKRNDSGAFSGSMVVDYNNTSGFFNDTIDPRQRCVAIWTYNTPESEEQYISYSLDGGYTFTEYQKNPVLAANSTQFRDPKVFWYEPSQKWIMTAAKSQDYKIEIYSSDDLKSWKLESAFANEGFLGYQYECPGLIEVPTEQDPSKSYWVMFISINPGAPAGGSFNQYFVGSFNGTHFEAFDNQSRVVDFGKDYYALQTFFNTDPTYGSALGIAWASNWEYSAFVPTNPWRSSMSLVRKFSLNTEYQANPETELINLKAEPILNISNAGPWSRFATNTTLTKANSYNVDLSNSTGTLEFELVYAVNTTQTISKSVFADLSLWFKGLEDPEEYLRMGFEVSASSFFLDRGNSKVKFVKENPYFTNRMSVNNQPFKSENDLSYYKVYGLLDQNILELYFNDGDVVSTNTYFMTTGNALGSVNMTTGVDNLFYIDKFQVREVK
Chain of Ab+Inv HC27 (HP6017 with invertase fused to the C-terminus of the heavy chain by an AS(G4S)5 linker) (heavy): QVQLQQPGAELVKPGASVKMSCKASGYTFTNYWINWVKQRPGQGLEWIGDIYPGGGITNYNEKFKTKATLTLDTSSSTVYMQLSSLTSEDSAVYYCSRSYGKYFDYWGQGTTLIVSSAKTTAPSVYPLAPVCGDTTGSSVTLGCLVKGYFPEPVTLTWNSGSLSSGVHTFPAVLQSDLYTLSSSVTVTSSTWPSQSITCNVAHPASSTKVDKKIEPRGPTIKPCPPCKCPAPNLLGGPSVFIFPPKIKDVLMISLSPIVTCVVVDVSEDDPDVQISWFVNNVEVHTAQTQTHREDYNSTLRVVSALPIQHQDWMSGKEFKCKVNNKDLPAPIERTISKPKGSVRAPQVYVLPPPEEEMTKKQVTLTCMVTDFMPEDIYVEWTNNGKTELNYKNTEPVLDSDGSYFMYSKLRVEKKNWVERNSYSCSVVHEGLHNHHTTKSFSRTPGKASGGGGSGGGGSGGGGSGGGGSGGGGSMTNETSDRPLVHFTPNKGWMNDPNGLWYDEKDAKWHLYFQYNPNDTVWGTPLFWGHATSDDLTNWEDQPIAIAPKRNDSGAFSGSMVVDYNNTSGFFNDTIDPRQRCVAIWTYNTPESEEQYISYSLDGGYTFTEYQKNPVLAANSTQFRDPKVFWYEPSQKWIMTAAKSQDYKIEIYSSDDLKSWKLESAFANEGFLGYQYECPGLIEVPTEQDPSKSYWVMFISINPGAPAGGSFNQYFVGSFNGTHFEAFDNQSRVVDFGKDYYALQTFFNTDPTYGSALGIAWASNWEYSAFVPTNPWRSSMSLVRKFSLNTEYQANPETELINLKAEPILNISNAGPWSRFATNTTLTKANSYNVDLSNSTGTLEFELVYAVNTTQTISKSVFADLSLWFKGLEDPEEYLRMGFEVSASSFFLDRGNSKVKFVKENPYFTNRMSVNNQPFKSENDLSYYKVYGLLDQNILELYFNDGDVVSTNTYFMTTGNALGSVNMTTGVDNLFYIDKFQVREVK

Substance	Kd [1] [nM]	koff [1] [s⁻¹]	kon [1] [M⁻¹ s⁻¹]	EC50 (read off the curve) [2] [nM]	Kd [3] [nM]
Ab+Inv LC15 (HP6017 with invertase fused to the C-terminus of the light chain by a (G4S)3 linker)	< 0.001	< 1e-07	1.46e+06	20	16
recombinant antibody HP6017 (anti-human IgG, mouse IgG2a kappa)	< 0.001	< 1e-07	490000	20	18
Ab+Inv LC25 (HP6017 with invertase fused to the C-terminus of the light chain by a (G4S)5 linker)	< 0.001	< 1e-07	1.61e+06		17

Next, values leading:

Kd [1] [nM]	koff [1] [s⁻¹]	kon [1] [M⁻¹ s⁻¹]	EC50 (read off the curve) [2] [nM]	Kd [3] [nM]	Substance
< 0.001	< 1e-07	450000	30	25	Ab+Inv HC27 (HP6017 with invertase fused to the C-terminus of the heavy chain by an AS(G4S)5 linker)
< 0.001	< 1e-07	430000	20	21	Ab+Inv HC17 (HP6017 with invertase fused to the C-terminus of the heavy chain by an AS(G4S)3 linker)
